Measured values: patent publication US20140242069

Biological target: GST-KRT19 fusion protein (UniProt P08727)
Chain of UniProt P08727 (P08727 whole entry, the tested form may be a part): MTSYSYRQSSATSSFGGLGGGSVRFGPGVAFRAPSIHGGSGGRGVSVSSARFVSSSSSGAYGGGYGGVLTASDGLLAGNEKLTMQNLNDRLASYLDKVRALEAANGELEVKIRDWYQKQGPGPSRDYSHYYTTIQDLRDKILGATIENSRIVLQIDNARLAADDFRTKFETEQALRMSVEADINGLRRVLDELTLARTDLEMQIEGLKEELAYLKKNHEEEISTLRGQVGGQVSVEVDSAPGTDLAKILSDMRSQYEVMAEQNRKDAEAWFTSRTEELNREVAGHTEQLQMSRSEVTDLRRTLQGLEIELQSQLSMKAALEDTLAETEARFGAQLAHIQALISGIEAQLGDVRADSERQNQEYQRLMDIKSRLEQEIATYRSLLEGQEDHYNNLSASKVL

Q: With HA-Akt protein as the substance, how does the “in vitro kinase assay ([gamma-32P]ATP, SDS-PAGE, autoradiography)” value read?
A: Akt mediated Ser35 phosphorylation of KRT
